Measured values published in patent US20190264213A1 (YEDA RESEARCH AND DEVELOPMENT, published 2019).

B1: phi3T AimR receptor with C-terminal 6xHis-tag (purified) (receptor)
chain: MIKNECEKDNQLAARLAKLAGYEKVNGFYKFVNTPEKEMENLGGLLKIVKNLFPDSEEQLLSEYFLELDPNKKCARQSVEYSDINQWDTLTDKIIINLCNSKNSTSQEWGKVYSLHRKLNKNEISLNDAIRESGKCKIKSAEMLFFSNAMLMYAYLNIGEFGLMKSTSKLLEFDDLPEGFIKESFKSRVSMLEANISLNENSLLEARQHSNRAIENSNVNRICFFAYLTIGNTLIFEDYDEAKKAYIKGQKYAKNPVHQEMLDGALCFLSNIWKKENQWVNYNSDNIKYLQLRAFYYINQGNIEEATEILDELSSRDQDENELGFYYYYKGLISQDKTDYYKSIRYFKKSDDKYFIQLPLLQLERMGADLELLNLISIHHHHHH
notes: Expressed in E. coli BL21(DE3) from pET28a and purified in two steps; Migrates as a homodimer in gel filtration without peptide and as a monomer with SAIRGA; also called His-tagged AimR; purified AimR

Experiments:
[1] = molecular target: the molecule itself; assay: analytical gel filtration (Superdex 200 Increase), self-association
Method: Pure AimR was injected to an analytical gel filtration column (Superdex_200_Increase_10/30 GL, GE Healthcare) equilibrated with buffer containing 20 mM Tris pH 8, 0.3 M NaCl, 2 mM TCEP. […] The column was calibrated (inset of FIG. 4C) by monitoring the migration positions of the following known proteins/polymers: blue dextran (2000 kDa), Thyroglobulin (669 kDa), Apoferritin (443 kDa), beta-amylase (200 kDa), alcohol dehydrogenase (150 kDa), Albumin (66 kDA) and Carbonic anhydrase (29 kDa).

[2] = molecular target: B1; assay: microscale thermophoresis (MST), label-free
Method: Two-step purified 6×His-tagged AimR stored in Tris/NaCl buffer (50 mM Tris pH 8.0, 150 mM NaCl, 2 mM TCEP) at −80° C. was thawed on ice and centrifuged at 21,000 g for 10 minutes at 4° C. prior to analysis. […] AimR was diluted to 200 nM and was incubated with 16 different peptide concentrations varying between 9-4000 nM, which were prepared in Tris/NaCl buffer containing 0.1% [v/v] Pluronic acid (NanoTemper). Roughly 3 μl were loaded into NT.LabelFree Zero-Background Premium Coated Capillaries (NanoTemper) and inserted into a Monolith NT.LabelFree device (NanoTemper). MST experiments were performed at 60% MST power (infra-red laser) and 20% LED power at 23° C. using the Monolith NT.LabelFree instrument (Nanotemper). Ratios between normalized initial fluorescence and post-temperature-jump and thermophoresis were calculated and averaged from 3 independent runs (runs were incubated for 20 minutes at room temperature before the measurement).

Binder	binding result [1]	binding result [2]
B1	binds	–
GMPRGA (Synthetic peptide, 98% purity, desalted (Peptide 2.0 Inc.); also called spBeta-derived GMPRGA peptide) [GMPRGA peptide (spBeta arbitrium peptide, mature AimP)]	–	no binding (tested: peptide 9-4000 nM, AimR 200 nM)
